Assay [1] has as its system COL17A1. The assay can be described thus: COL17A1 expression in human epidermal keratinocytes by high content imaging (HCS). The format is cell-based. The note with it: Table 1; human epidermal keratinocytes, 48 hours after addition of reagents, fluorescence intensity per cell. The protocol: The present inventors further searched for substances that induce or maintain the expression of COL17A1. Human epidermal keratinocytes were seeded in 384-well plates, cultured for 48 hours after addition of reagents, immunostained with an anti-COL17A1 antibody and a fluorescently labeled secondary antibody, and then the fluorescence intensity per cell was detected using a high content imaging system (HCS: High Content Screening). In addition to cell counting with DAPI, the expression level of COL17A1 was quantified.

The subject of assay [2] is human epidermal keratinocytes. The assay can be described thus: Colony formation assay using human epidermal keratinocytes. The note with it: Table 1. The assay is classed as cell-based. The source says:
To test whether COL17A1-mediated SCD maintains clonal proliferation of epidermal stem cell clones, the present inventors used a colony formation assay, which is an in vitro assay said to be the gold standard for assessing the self-renewal ability of epidermal stem cells, including cells in the tail epidermis.

B1: Epidermal Growth Factor (EGF): growth factor (protein, UniProt P01133 23-1207, looked up)
Pro-epidermal growth factor: PQHWSCPEGTLAGNGNSTCVGPAPFLIFSHGNSIFRIDTEGTNYEQLVVDAGVSVIMDFHYNEKRIYWVDLERQLLQRVFLNGSRQERVCNIEKNVSGMAINWINEEVIWSNQQEGIITVTDMKGNNSHILLSALKYPANVAVDPVERFIFWSSEVAGSLYRADLDGVGVKALLETSEKITAVSLDVLDKRLFWIQYNREGSNSLICSCDYDGGSVHISKHPTQHNLFAMSLFGDRIFYSTWKMKTIWIANKHTGKDMVRINLHSSFVPLGELKVVHPLAQPKAEDDTWEPEQKLCKLRKGNCSSTVCGQDLQSHLCMCAEGYALSRDRKYCEDVNECAFWNHGCTLGCKNTPGSYYCTCPVGFVLLPDGKRCHQLVSCPRNVSECSHDCVLTSEGPLCFCPEGSVLERDGKTCSGCSSPDNGGCSQLCVPLSPVSWECDCFPGYDLQLDEKSCAASGPQPFLLFANSQDIRHMHFDGTDYGTLLSQQMGMVYALDHDPVENKIYFAHTALKWIERANMDGSQRERLIEEGVDVPEGLAVDWIGRRFYWTDRGKSLIGRSDLNGKRSKIITKENISQPRGIAVHPMAKRLFWTDTGINPRIESSSLQGLGRLVIASSDLIWPSGITIDFLTDKLYWCDAKQSVIEMANLDGSKRRRLTQNDVGHPFAVAVFEDYVWFSDWAMPSVMRVNKRTGKDRVRLQGSMLKPSSLVVVHPLAKPGADPCLYQNGGCEHICKKRLGTAWCSCREGFMKASDGKTCLALDGHQLLAGGEVDLKNQVTPLDILSKTRVSEDNITESQHMLVAEIMVSDQDDCAPVGCSMYARCISEGEDATCQCLKGFAGDGKLCSDIDECEMGVPVCPPASSKCINTEGGYVCRCSEGYQGDGIHCLDIDECQLGEHSCGENASCTNTEGGYTCMCAGRLSEPGLICPDSTPPPHLREDDHHYSVRNSDSECPLSHDGYCLHDGVCMYIEALDKYACNCVVGYIGERCQYRDLKWWELRHAGHGQQQKVIVVAVCVVVLVMLLLLSLWGAHYYRTQKLLSKNPKNPYEESSRDVRSRRPADTEDGMSSCPQPWFVVIKEHQDLKNGGQPVAGEDGQAADGSMQPTSWRQEPQLCGMGTEQGCWIPVSSDKGSCPQVMERSFHMPSYGTQTLEGGVEKPHSLLSANPLWQQRALDPPHQMELTQ
modifications: Pro-epidermal growth factor
On to B1, for which the “COL17A1 expression level (control ratio)” value in assay [1] is “⊚ (one double circle (⊚) represents a 1.2-fold or greater increase)”. In assay [2], the “Colony area (control ratio)” value was “⊚⊚ (Two double circles (⊚⊚) in the control ratio of the colony number or colony area indicates an increase of 1.2-fold or more)” and the “Colony number (control ratio)” value is “⊚⊚ (Two double circles (⊚⊚) in the control ratio of the colony number or colony area indicates an increase of 1.2-fold or more)”.

(Values after US20260256870A1, “SKIN COMPOSITION” (Eaderm Co., Ltd., priority 2019, published 2026).)
